Measured values reported in patent US6521602 (GPC BIOTECH, dated 2003).

Target: CDK4/cyclin D1 complex (UniProt P11802 1-303; P24385 1-295)
Test: cell-based or functional assay

Sequence of CDK4/cyclin D1 complex (P11802 whole entry, chain 1 of 2): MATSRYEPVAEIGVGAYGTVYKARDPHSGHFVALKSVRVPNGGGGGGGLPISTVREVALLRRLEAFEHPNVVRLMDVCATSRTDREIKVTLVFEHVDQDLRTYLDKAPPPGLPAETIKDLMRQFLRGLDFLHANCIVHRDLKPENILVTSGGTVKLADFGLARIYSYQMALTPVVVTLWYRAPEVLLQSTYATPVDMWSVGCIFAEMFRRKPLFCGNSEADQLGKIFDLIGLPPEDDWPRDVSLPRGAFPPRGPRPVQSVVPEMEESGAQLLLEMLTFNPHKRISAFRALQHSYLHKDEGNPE
Sequence of CDK4/cyclin D1 complex (P24385 whole entry, chain 2 of 2): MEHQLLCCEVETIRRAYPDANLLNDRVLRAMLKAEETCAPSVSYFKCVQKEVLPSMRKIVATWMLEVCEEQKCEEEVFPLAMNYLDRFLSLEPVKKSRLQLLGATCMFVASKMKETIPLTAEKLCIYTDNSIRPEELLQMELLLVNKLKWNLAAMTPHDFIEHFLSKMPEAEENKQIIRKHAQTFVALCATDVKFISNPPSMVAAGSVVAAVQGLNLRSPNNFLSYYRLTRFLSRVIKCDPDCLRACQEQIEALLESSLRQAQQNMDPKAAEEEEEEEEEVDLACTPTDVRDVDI

| Molecule | IC50, in vitro kinase activity |
| --- | --- |
| human p27 (from UniProt P46527 1-198) | 63 nM |
| human p16 (other) MEPAAGSSMEPSADWLATAAARGRVEEVRALLEAGALPNAPNSYGRRPIQVMMMGSARVAELLLLHGAEPNCADPATLTRPVHDAAREGFLDTLVVLHRAGARLDVRDAWGRLPVDLAEELGHRDVARYLRAAAGGTRGSNHARIDAAEGPSDIPD | 250 nM |
